Experimental data taken from US20190367572A1.

Target: sonic hedgehog protein (SHH), endogenous in rat MPG/CN organ culture (rat) (UniProt Q63673)
Assay: cell-based or functional assay

Chain of sonic hedgehog protein (SHH), endogenous in rat MPG/CN organ culture (rat) (Q63673 25-198 limits assumed): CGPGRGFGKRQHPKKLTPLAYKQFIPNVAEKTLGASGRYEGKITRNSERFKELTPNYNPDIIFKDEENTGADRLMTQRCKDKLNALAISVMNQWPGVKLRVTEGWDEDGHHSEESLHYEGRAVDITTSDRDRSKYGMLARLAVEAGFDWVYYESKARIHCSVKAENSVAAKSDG

Which results are given for 5E1 SHH inhibitor (antibody)?
neurite formation (growth cones per mm) in uninjured MPG/CN organ culture, three days: 86 % reduction; neurite formation (growth cones per mm) in uninjured MPG/CN organ culture, three days (fold reduction): 7.3
